Legend:
[1] = target: T1, PP2CA (clade A protein phosphatase 2C, At3g11410) (Arabidopsis thaliana, UniProt P49598 1-399, limits assumed); assay: cell-based or functional assay
T1 sequence (looked up): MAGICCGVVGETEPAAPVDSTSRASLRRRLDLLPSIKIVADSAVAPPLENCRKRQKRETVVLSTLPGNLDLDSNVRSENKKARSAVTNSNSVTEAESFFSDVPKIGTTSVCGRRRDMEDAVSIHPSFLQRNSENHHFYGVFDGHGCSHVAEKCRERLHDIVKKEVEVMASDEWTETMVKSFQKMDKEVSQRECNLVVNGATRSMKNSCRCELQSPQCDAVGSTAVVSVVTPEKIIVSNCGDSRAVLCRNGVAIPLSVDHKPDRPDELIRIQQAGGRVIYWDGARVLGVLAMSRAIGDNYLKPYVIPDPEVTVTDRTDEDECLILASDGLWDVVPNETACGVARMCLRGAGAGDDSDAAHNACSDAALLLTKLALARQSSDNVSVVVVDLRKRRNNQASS

[2] = target: T2, HAB1 (clade A protein phosphatase 2C) (Arabidopsis thaliana, UniProt Q9CAJ0 23-511, limits assumed); assay: cell-based or functional assay
T2 sequence (looked up): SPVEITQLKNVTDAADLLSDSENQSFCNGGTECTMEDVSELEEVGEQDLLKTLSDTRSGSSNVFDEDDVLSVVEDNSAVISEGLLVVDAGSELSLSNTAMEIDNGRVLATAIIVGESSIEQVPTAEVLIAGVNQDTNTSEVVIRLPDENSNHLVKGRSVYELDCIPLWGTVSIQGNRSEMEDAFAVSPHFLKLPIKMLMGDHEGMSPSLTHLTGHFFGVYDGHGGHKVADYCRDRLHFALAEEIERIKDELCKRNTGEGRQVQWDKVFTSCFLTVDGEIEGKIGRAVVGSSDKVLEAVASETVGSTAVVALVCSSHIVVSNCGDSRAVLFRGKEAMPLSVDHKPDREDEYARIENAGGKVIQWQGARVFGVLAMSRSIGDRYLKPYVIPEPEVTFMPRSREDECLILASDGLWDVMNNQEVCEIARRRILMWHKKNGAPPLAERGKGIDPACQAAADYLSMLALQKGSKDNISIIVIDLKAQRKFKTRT

PP2CA [3] = assay: Yeast two hybrid (Y2H) growth assay with PP2CA; assay type: cell-based, Arabidopsis; details: for interaction with PP2CA in Y2H assay: absence of ABA, growth on medium lacking His and Ade
Description: We conducted error-prone PCR mutagenesis by amplification of the PYL4 open reading frame using the following primers: FPYL4Ncol, 5″-GCAGCAGCCATGGTTGCCG TTCACCGTCCTTCT and RPYL4EcoRIstop: […] TCT TCTTCTT, and the following conditions: 2 mM dGTP, dCTP and dTTP, 0.5 mM dATP, 12 mM MgCl2 and Taq polymerase. The PCR product was Ncol-EcoRI doubly digested, cloned into the pGBKT7 vector and DH10B cells were transformed by electroporation. Thus, we generated an allele library in E. coli of approximately 10,000 PYL4 mutant clones. […] The library was shuttled to yeast AH109 by co-transformation with pGAD7-PP2CA. Yeast transformants were pooled and clones able to grow in the absence of exogenous ABA in medium lacking histidine and adenine were selected. Yeast plasmids were extracted, sequenced and retransformed in yeast cells to recapitulate the phenotype. Protocols for yeast two hybrid assays were similar to those described previously (Saez et al., 2008).

PP2CA [4] = target: T3, PP2CA (Arabidopsis thaliana, UniProt O80920+P49598, C176R/F130Y); assay: In vitro phosphatase activity assay with pNPP substrate, PP2CA; assay type: biochemical; details: presence of ABA
T3 construct: made in house; host or cells: E. coli BL21 (DE3)
Description: (§1) Phosphatase activity was measured using as a substrate either pNPP or phosphorylated ΔC-ABF2, ΔC-ABI5 and SLAC11-186 proteins. For the pNPP substrate, assays were performed in a 100 μl solution containing 25 mM Tris-HCl pH 7.5, 2 mM MnCl2 and 5 mM pNPP. Assays contained 2 μM phosphatase (PP2CA or HAB1), 4 μM receptor and the indicated concentrations of ABA. Phosphatase activity was recorded with a ViktorX5 reader at 405 nm every 60 seconds over 30 minutes and the activity obtained after 30 minutes is indicated in the graphics. In order to obtain phosphorylated ΔCABF2, ΔC-ABI5 and SLAC11-186 proteins, OST1 phosphorylation assays were done basically as described previously (Dupeux et al., 2011 b). ΔC-ABF2 and SLAC11-186 N-terminal fragments were prepared as described (Antoni et al., 2012; Vahisalu et al., 2010). ΔC-ABI5 recombinant protein (amino acid residues 1-200, containing the C1, C2 and C3 target sites of ABA-activated SnRK2s) was expressed in the pETM11 vector as described above. The reaction mixture containing the OST1 kinase and either ΔCABF2, ΔC-ABI5 or SLAC11-186 recombinant proteins were incubated for 50 min at room temperature in 30 μl of kinase buffer: 20 mM Tris-HCl pH 7.8, 20 mM MgCl2, 2 mM MnCl2, and 3.5 μCi of γ-32ATP (3000 Ci/mmol). Thus, OST1 was autophosphorylated and in turn it phosphorylated ΔC-ABF2, ΔC-ABI5 and SLAC11-186 proteins. Next, they were used as substrates of PP2CA that was preincubated (or not) for 10 with PYL4 or PYL4A194T (1:10 phosphatase:receptor ratio) either in the absence or presence of 30 μM ABA. The reaction was stopped by adding Laemmli buffer and the proteins were separated by SDS-PAGE using an 8% acrylamide gel and transferred to an Immobilon-P membrane (Millipore). Radioactivity was detected and quantified using a Phosphorimage system (FLA5100, Fujifilm). After scanning, the same membrane was used for Ponceau staining. The data presented are averages of at least three independent experiments.

PP2CA [5] = assay: as above; assay type: biochemical, Arabidopsis; details: absence of ABA
Description: as §1

[6] = target: T1, PP2CA (clade A protein phosphatase 2C, …); assay: yeast two-hybrid growth assay, absence of ABA
[7] = test system: Arabidopsis thaliana plants; assay: Seedling establishment and early seedling growth of OE lines on ABA; assay type: in vivo; details: 0.25 or 0.5 μM ABA
Description: PYL4 or PYL4 mutants were cloned into pCR8/GW/TOPO entry vector (Invitrogen) and recombined by LR reaction into the gateway compatible ALLIGATOR2 vector (Bensmihen et al., 2004). This construct drives expression of PYL4 under control of the 35S CaMV promoter and introduces a triple HA epitope at the N-terminus of the protein. Selection of transgenic lines is based on the visualization of GFP in seeds, whose expression is driven by the specific seed promoter At2S3. The ALLIGATOR2-35S:3HA-PYL4 or mutant constructs were transferred to Agrobacterium tumefaciens C58C1 (pGV2260) (Deblaere et al., 1985) by electroporation and used to transform Columbia wild type plants by the floral dip method. T1 transgenic seeds were selected based on GFP visualization and sowed in soil to obtain the T2 generation. At least three independent transgenic lines were generated for each construct. Homozygous T3 progeny was used for further studies and expression of HA-tagged protein in 21-d-old seedlings was verified by immunoblot analysis using anti-HA-peroxidase (Roche).
After surface sterilization of the seeds, stratification was conducted in the dark at 4° C. for 3 d. Approximately 100 seeds of each genotype were sowed on MS plates supplemented with different ABA concentrations per experiment. To score seed germination, radical emergence was analyzed at 72 h after sowing. Seedling establishment was scored as the percentage of seeds that developed green expanded cotyledons and the first pair of true leaves at 7-d.

[8] = target: T1, PP2CA (clade A protein phosphatase 2C, …); assay: yeast two-hybrid growth assay, presence of ABA
[9] = target: T4, PYL4C176R F130Y (AtPYL F130Y and C176R)
T4 chain: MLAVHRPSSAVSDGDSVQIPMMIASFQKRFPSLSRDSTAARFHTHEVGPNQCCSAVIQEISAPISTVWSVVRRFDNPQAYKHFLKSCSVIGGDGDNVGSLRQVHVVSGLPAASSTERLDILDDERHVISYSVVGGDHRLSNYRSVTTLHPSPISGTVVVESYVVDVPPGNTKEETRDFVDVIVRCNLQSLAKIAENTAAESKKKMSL

[10] = target: T5, PYL4H82R V97A (AtPYL H82 and V97A)
T5 chain: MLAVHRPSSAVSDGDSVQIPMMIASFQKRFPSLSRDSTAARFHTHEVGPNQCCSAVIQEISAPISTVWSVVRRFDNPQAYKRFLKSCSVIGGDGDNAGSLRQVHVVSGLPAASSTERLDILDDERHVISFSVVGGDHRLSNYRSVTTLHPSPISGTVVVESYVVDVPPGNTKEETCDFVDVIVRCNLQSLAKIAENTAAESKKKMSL

B1: AtPYL4 wild type polypeptide (At2g38310) (receptor)
chain: MLAVHRPSSAVSDGDSVQIPMMIASFQKRFPSLSRDSTAARFHTHEVGPNQCCSAVIQEISAPISTVWSVVRRFDNPQAYKHFLKSCSVIGGDGDNVGSLRQVHVVSGLPAASSTERLDILDDERHVISFSVVGGDHRLSNYRSVTTLHPSPISGTVVVESYVVDVPPGNTKEETCDFVDVIVRCNLQSLAKIAENTAAESKKKMSL
IC50 of inhibition of PP2CA phosphatase activity (pNPP substrate; 2 µM phosphatase, 4 µM receptor, ABA concentration varied) [1]: 1 µM
IC50 of inhibition of HAB1 phosphatase activity (pNPP substrate; 2 µM phosphatase, 4 µM receptor, ABA concentration varied) [2]: 0.25 µM

B2: PYL4C176R F130Y: AtPYL4 mutant polypeptide with F130Y and C176R substitutions (SEQ ID NO. 63) (protein, listed as Arabidopsis thaliana)
chain: MLAVHRPSSAVSDGDSVQIPMMIASFQKRFPSLSRDSTAARFHTHEVGPNQCCSAVIQEISAPISTVWSVVRRFDNPQAYKHFLKSCSVIGGDGDNVGSLRQVHVVSGLPAASSTERLDILDDERHVISYSVVGGDHRLSNYRSVTTLHPSPISGTVVVESYVVDVPPGNTKEETRDFVDVIVRCNLQSLAKIAENTAAESKKKMSL
interaction with PP2CA in Y2H assay (PP2CA [3]): enhanced the interaction of PYL4 and PP2CA in the absence of ABA
capacity to inhibit PP2CA (PP2CA [4]): lower capacity to inhibit PP2CA
effect on PP2CA activity (PP2CA [5]): did not affect PP2CA activity

B3: PYL4C176R F130Y (AtPYL F130Y and C176R) (receptor)
chain: MLAVHRPSSAVSDGDSVQIPMMIASFQKRFPSLSRDSTAARFHTHEVGPNQCCSAVIQEISAPISTVWSVVRRFDNPQAYKHFLKSCSVIGGDGDNVGSLRQVHVVSGLPAASSTERLDILDDERHVISYSVVGGDHRLSNYRSVTTLHPSPISGTVVVESYVVDVPPGNTKEETRDFVDVIVRCNLQSLAKIAENTAAESKKKMSL
notes: also called F130Y C176R
binding result [6]: binds

B4: PYL4V97A (AtPYL V97A) (receptor)
chain: MLAVHRPSSAVSDGDSVQIPMMIASFQKRFPSLSRDSTAARFHTHEVGPNQCCSAVIQEISAPISTVWSVVRRFDNPQAYKHFLKSCSVIGGDGDNAGSLRQVHVVSGLPAASSTERLDILDDERHVISFSVVGGDHRLSNYRSVTTLHPSPISGTVVVESYVVDVPPGNTKEETCDFVDVIVRCNLQSLAKIAENTAAESKKKMSL
interaction with PP2CA in Y2H assay (PP2CA [3]): did not affect the interaction in the absence of ABA
yeast growth in Y2H assay with PP2CA (PP2CA [3]; presence of ABA (50 μM)): increased yeast growth
ABA-mediated inhibition of seedling establishment [7]: enhanced ABA-mediated inhibition of seedling establishment compared to non-transformed plants
binding result [8]: binds

B5: PP2CA (clade A protein phosphatase 2C, At3g11410) (protein)
chain: MAGICCGVVGETEPAAPVDSTSRASLRRRLDLLPSIKIVADSAVAPPLENCRKRQKRETVVLSTLPGNLDLDSNVRSENKKARSAVTNSNSVTEAESFFSDVPKIGTTSVCGRRRDMEDAVSIHPSFLQRNSENHHFYGVFDGHGCSHVAEKCRERLHDIVKKEVEVMASDEWTETMVKSFQKMDKEVSQRECNLVVNGATRSMKNSCRCELQSPQCDAVGSTAVVSVVTPEKIIVSNCGDSRAVLCRNGVAIPLSVDHKPDRPDELIRIQQAGGRVIYWDGARVLGVLAMSRAIGDNYLKPYVIPDPEVTVTDRTDEDECLILASDGLWDVVPNETACGVARMCLRGAGAGDDSDAAHNACSDAALLLTKLALARQSSDNVSVVVVDLRKRRNNQASS
PP2CA phosphatase activity (pNPP substrate) in the absence of ABA [9]: although the H82RV97A and F130Y C176R mutations promoted ABA-independent interactions in Y2H assay, they did not affect PP2CA activity in the absence of ABA
PP2CA phosphatase activity (pNPP substrate) in the absence of ABA [10]: although the H82RV97A and F130Y C176R mutations promoted ABA-independent interactions in Y2H assay, they did not affect PP2CA activity in the absence of ABA

Reference: patent US20160068860A1, “TRANSGENIC PLANTS” (CONSEJO SUPERIOR DE INVESTIGACIONES CIENTIFICAS (CSIC), priority 2013, published 2016)
